Data as given in article PMC10553838 (PLOS Pathogens, 2023).

Target: F-actin (filamentous rabbit skeletal muscle α-actin) (rabbit, UniProt P68135 1-377)
Experiment: cell-based or functional assay

B1: Pa-ExoY (20-378) K347A (enzyme)
chain: LLRPADMQARALQDLFDAQGVGVPVEHALRMQAVARQTNTVFGIRPVERIVTTLIEEGFPTKGFSVKGKSSNWGPQAGFICVDQHLSKREDRDTAEIRKLNLAVAKGMDGGAYTQTDLRISRQRLAELVRNFGLVADGVGPVRLLTAQGPSGKRYEFEARQEADGLYRISRLGRSEAVQVLASPACGLAMTADYDLFLVAPSIEAHGSGGLDARRNTAVRYTPLGAKDPLSEDGFYGREDMARGNITPRTRQLVDALNDCLGRGEHREMFHHSDDAGNPGSHMGDNFPATFYLPRAMEHRVGEESVRFDEVCVVADRKSFSLLVECIAGNGYHFTAHPDWNVPLRPGFQEALDFFQRKV
- F-actin-stimulated guanylate cyclase (cGMP synthesis) activity, 3 μM F-actin, against wild-type Pa-ExoY: ~15 fold decrease

B2: Pa-ExoY (20-378) 3 Mut (F367A-L371A-F374A) (enzyme)
chain: LLRPADMQARALQDLFDAQGVGVPVEHALRMQAVARQTNTVFGIRPVERIVTTLIEEGFPTKGFSVKGKSSNWGPQAGFICVDQHLSKREDRDTAEIRKLNLAVAKGMDGGAYTQTDLRISRQRLAELVRNFGLVADGVGPVRLLTAQGPSGKRYEFEARQEADGLYRISRLGRSEAVQVLASPACGLAMTADYDLFLVAPSIEAHGSGGLDARRNTAVRYTPLGAKDPLSEDGFYGREDMARGNITPRTRQLVDALNDCLGRGEHREMFHHSDDAGNPGSHMGDNFPATFYLPRAMEHRVGEESVRFDEVCVVADRKSFSLLVECIKGNGYHFTAHPDWNVPLRPGAQEAADFAQRKV
- F-actin-stimulated guanylate cyclase (cGMP synthesis) activity, 3 μM F-actin, against wild-type Pa-ExoY: ~12000 fold reduction

B3: Pa-ExoY (20-378) H352A (enzyme)
chain: LLRPADMQARALQDLFDAQGVGVPVEHALRMQAVARQTNTVFGIRPVERIVTTLIEEGFPTKGFSVKGKSSNWGPQAGFICVDQHLSKREDRDTAEIRKLNLAVAKGMDGGAYTQTDLRISRQRLAELVRNFGLVADGVGPVRLLTAQGPSGKRYEFEARQEADGLYRISRLGRSEAVQVLASPACGLAMTADYDLFLVAPSIEAHGSGGLDARRNTAVRYTPLGAKDPLSEDGFYGREDMARGNITPRTRQLVDALNDCLGRGEHREMFHHSDDAGNPGSHMGDNFPATFYLPRAMEHRVGEESVRFDEVCVVADRKSFSLLVECIKGNGYAFTAHPDWNVPLRPGFQEALDFFQRKV
- F-actin-stimulated guanylate cyclase (cGMP synthesis) activity, 3 μM F-actin, against wild-type Pa-ExoY: ~8 fold decrease
